We go through 16 sequences from the Immune Epitope Database (IEDB).

For assay [1], the target named is HLA-B*44:03. Put plainly: IEDB peptide-MHC binding, purified MHC/competitive/radioactivity; filed as Kd, often an IC50 or EC50 that approximates it; ≥ and ≤ were set here for values at or beyond the usual limits of such assays.
Assay [2] concerns the target HLA-B*40:01. The description is as above.
The target in assay [3] is HLA-B*40:02. The description is as above.
Assay [4] addresses HLA-B*18:01. Described as above.
Assay [5] deals with HLA-B*45:01. The assay is described as above.
Assay [6] has as its target HLA-B*44:02. The description is as above.
Assay [7] deals with HLA-A*03:01. Description: IEDB peptide-MHC binding, purified MHC/competitive/fluorescence; filed as Kd, often an IC50 or EC50 that approximates it; ≥ and ≤ were set here for values at or beyond the usual limits of such assays.
Assay [8] has as its target HLA-B*15:01. The assay is described as above.
Assay [9] deals with HLA-A*03:01. Description: IEDB peptide-MHC binding, purified MHC/competitive/radioactivity; filed as Kd, often an IC50 or EC50 that approximates it; ≥ and ≤ were set here for values at or beyond the usual limits of such assays. Conditions: source organism: Hepacivirus hominis.
The target of assay [10] is HLA-A*02:06. The assay is described as above. Conditions: source organism: Hepacivirus hominis.
Assay [11] deals with HLA-B*54:01. Described as above. Conditions: source organism: Hepacivirus hominis.
Assay [12] deals with HLA-A*68:01. The assay is described as above. The settings on record: source organism: Hepacivirus hominis.
Assay [13] has as its target HLA-A*02:01. Described as above. The settings on record: source organism: Hepacivirus hominis.
Assay [14] concerns the target HLA-A*11:01. The assay is described as above. The settings on record: source organism: Hepacivirus hominis.
In assay [15] the target is HLA-A*68:02. The assay is described as above. Conditions: source organism: Hepacivirus hominis.
The target in assay [16] is HLA-B*35:01. The assay is described as above. Conditions: source organism: Hepacivirus hominis.
For assay [17], the target named is HLA-A*01:01. The description is as above. The settings on record: source organism: Hepacivirus hominis.
Assay [18] deals with HLA-A*31:01. The description is as above. Conditions: source organism: Hepacivirus hominis.
Assay [19] addresses HLA-A*02:02. Described as above. Conditions: source organism: Hepacivirus hominis.
Assay [20] concerns the target HLA-A*02:03. The description is as above. The settings on record: source organism: Hepacivirus hominis.
Assay [21] addresses HLA-B*07:02. The assay is described as above. The settings on record: source organism: Hepacivirus hominis.
Assay [22] has as its target HLA-B*51:01. Described as above. The settings on record: source organism: Hepacivirus hominis.
For assay [23], the target named is HLA-B*53:01. The assay is described as above. The settings on record: source organism: Hepacivirus hominis.
Assay [24] deals with HLA-A*33:01. Described as above. Conditions: source organism: Hepacivirus hominis.
The target of assay [25] is HLA-B*08:01. The description is as above. The settings on record: source organism: Hepacivirus hominis.
In assay [26] the target is HLA-A*02:01. Description: IEDB peptide-MHC binding, purified MHC/competitive/fluorescence; filed as Kd, often an IC50 or EC50 that approximates it; ≥ and ≤ were set here for values at or beyond the usual limits of such assays. The settings on record: source organism: Reston ebolavirus.
Assay [27] concerns the target HLA-B*18:01. The description is as above. Conditions: source organism: Reston ebolavirus.
The target in assay [28] is HLA-B*46:01. The assay is described as above. Conditions: source organism: Reston ebolavirus.
For assay [29], the target named is HLA-B*51:01. The assay is described as above. Conditions: source organism: Reston ebolavirus.
The target of assay [30] is HLA-A*26:01. The description is as above. The settings on record: source organism: Reston ebolavirus.
The target in assay [31] is HLA-B*39:01. The description is as above. The settings on record: source organism: Reston ebolavirus.
In assay [32] the target is HLA-B*57:01. Described as above. Conditions: source organism: Reston ebolavirus.
Assay [33] addresses HLA-B*27:03. The description is as above. The settings on record: source organism: Reston ebolavirus.
Assay [34] has as its target HLA-A*69:01. The description is as above. Conditions: source organism: Reston ebolavirus.
The target of assay [35] is HLA-A*03:01. Description: IEDB peptide-MHC binding, purified MHC/direct/fluorescence; filed as Kd, often an IC50 or EC50 that approximates it; ≥ and ≤ were set here for values at or beyond the usual limits of such assays. Conditions: source organism: Reston ebolavirus - Reston.
The mark [36] stands for this setting: source organism: SARS coronavirus Tor2.
Where [37] appears, read: source organism: Mammarenavirus whitewaterense.
Where [38] appears, read: source organism: Mammarenavirus guanaritoense.
Setting [39] is: source organism: Giardia lamblia ATCC 50803.
Setting [40] is: source organism: Mammarenavirus machupoense.
Where [41] appears, read: source organism: Lymphocytic choriomeningitis virus (strain Armstrong).
Where [42] appears, read: source organism: Shigella flexneri 5 str. 8401.
Where [43] appears, read: source organism: Hepacivirus hominis.

Where only a bound is given, the exact number is not on record here.

Consider WEIQQVVDA, for which the Kd is 9.04 µM in assay [1] (setting [36]); 1.03 µM in assay [2] (setting [36]); 0.0543 µM in assay [3] (setting [36]); 4.92 µM in assay [4] (setting [36]); 0.135 µM in assay [5] (setting [36]); no less than 30.3 µM in assay [6] (setting [36]).
Turning to VEYPIIGDEL, the Kd in assay [1] (setting [36]) was 0.282 µM; in [2] (setting [36]), 0.00504 µM; in [3] (setting [36]), 0.5 µM; in assay [4] (setting [36]), 15.2 µM; in [5] (setting [36]) it was 2.23 µM; in assay [6] (setting [36]) it was 4.81 µM.
With FELTSMKYF, the Kd in assay [1] (setting [36]) was 0.161 µM; in assay [2] (setting [36]) it was 10.7 µM; in assay [3] (setting [36]), 2.32 µM; in assay [4] (setting [36]), 3.72 µM; in assay [5] (setting [36]), no less than 33.9 µM; in [6] (setting [36]), 0.0927 µM.
With LDIQKCGEL, the Kd was no less than 78.1 µM in assay [1] (setting [37]); no less than 46.7 µM in assay [2] (setting [37]); 9.66 µM in assay [3] (setting [37]); no less than 53.2 µM in [4] (setting [37]); no less than 56.9 µM in assay [5] (setting [37]); no less than 77.9 µM in assay [6] (setting [37]).
For the sequence PEFDWILGW, the Kd in [1] (setting [38]) was 0.0274 µM; in assay [2] (setting [38]), no less than 76.1 µM; in assay [3] (setting [38]) it was no less than 22 µM; in assay [4] (setting [38]), 5.12 µM; in assay [5] (setting [38]), no less than 77.7 µM; in assay [6] (setting [38]), 0.212 µM.
On to LMLASSAGK, for which, in assay [7] (setting [39]), the Kd was 0.0078 µM.
The sequence LMLASSAGH displayed a Kd in assay [7] (setting [39]) of 0.559 µM.
For the sequence TERLKLFAA, the Kd is no less than 41.2 µM in [1] (setting [36]); 19.2 µM in assay [2] (setting [36]); 0.024 µM in assay [3] (setting [36]); 0.301 µM in assay [4] (setting [36]); 0.00473 µM in assay [5] (setting [36]); no less than 65.8 µM in assay [6] (setting [36]).
For the sequence VELVAEMDG, the Kd was no less than 24.5 µM in assay [1] (setting [36]); no less than 76.2 µM in assay [2] (setting [36]); no less than 77.3 µM in assay [3] (setting [36]); no less than 28.3 µM in [4] (setting [36]); no less than 29.4 µM in [5] (setting [36]); 10.6 µM in assay [6] (setting [36]).
Regarding SEILKTLGF, the Kd stood at 0.0141 µM in assay [1] (setting [40]); 1 µM in assay [2] (setting [40]); 0.165 µM in assay [3] (setting [40]); 0.655 µM in assay [4] (setting [40]); 1.61 µM in [5] (setting [40]); 0.00421 µM in [6] (setting [40]).
For REPVDQKQF, the Kd is 7.92 µM in assay [1] (setting [41]); no less than 40.5 µM in assay [2] (setting [41]); 11.9 µM in assay [3] (setting [41]); no less than 47.6 µM in assay [4] (setting [41]); no less than 77.7 µM in [5] (setting [41]); 1.63 µM in assay [6] (setting [41]).
Take EDIAMGYVV: the Kd in assay [1] (setting [40]) is no less than 38.4 µM; in [2] (setting [40]), no less than 45.3 µM; in assay [3] (setting [40]), 0.0698 µM; in assay [4] (setting [40]), 1.5 µM; in assay [5] (setting [40]) it was 2.26 µM; in assay [6] (setting [40]) it was 10.3 µM.
In the case of NELQTLPSL, the Kd in [7] (setting [42]) and in [8] (setting [42]) was no less than 20 µM each time.
Turning to RDWAHNSL, the Kd in assay [9] was no less than 87.3 µM; in [10], no less than 55.7 µM; in assay [11], no less than 87.7 µM; in assay [12] it was no less than 87.9 µM; in assay [13] it was no less than 69.4 µM; in assay [14], no less than 87 µM. Further, the Kd in assay [15] is no less than 69.8 µM; in assay [16] it was no less than 87.8 µM; in [1] (setting [43]) it was no less than 87.2 µM; in [17], 1.8 µM; in [2] (setting [43]), no less than 88.9 µM; in assay [18], no less than 67.1 µM. The Kd is no less than 89.5 µM in assay [3] (setting [43]); no less than 70 µM in assay [19]; no less than 88.6 µM in assay [4] (setting [43]); no less than 70.4 µM in assay [20]; 5.68 µM in [21]; no less than 75.4 µM in assay [6] (setting [43]). In addition, the Kd in [22] is no less than 87.3 µM; in assay [23] it was no less than 87.7 µM; in assay [24], no less than 78.4 µM; in [25] it was no less than 83.4 µM.
In turn, ALTSAMLDR showed a Kd in assay [7] (source organism: Yersinia pestis Antiqua) of 0.0381 µM.
Turning to ALYEENALK, the Kd in [26], in [8] (source organism: Reston ebolavirus), in assay [27], in [28], in assay [29] and in assay [30] was no less than 20 µM each time. The Kd in [31] was no less than 20 µM; in assay [32], no less than 20 µM; in assay [33] it was no less than 20 µM; in [34], no less than 20 µM; in assay [35], 1.84 µM.
